Where a chain is given by its changes, count along the chain named. One block for each binder: values may come before it.
Legend:
human TL1A [1] = target: T1, human TL1A (human, UniProt O95150 72-251); experiment: SPR, Fab format
T1 construct: Antigen in SPR and ELISA; Also used here for places that print only 'TL1A' and for endogenous TL1A in human whole blood; also called TNFSF15
T1 sequence (looked up): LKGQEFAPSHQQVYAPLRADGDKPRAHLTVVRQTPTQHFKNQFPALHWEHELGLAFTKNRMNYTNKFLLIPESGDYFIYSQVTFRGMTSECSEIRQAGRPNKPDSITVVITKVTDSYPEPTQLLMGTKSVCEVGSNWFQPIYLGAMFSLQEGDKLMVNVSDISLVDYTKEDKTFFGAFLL

human TL1A [2] = target: T1, human TL1A; experiment: SPR, Fab format, average
Cyno TL1A = target: T2, Cyno TL1A (cyno, UniProt G7PRK8 72-251); experiment: SPR, Fab format, average
T2 sequence: T1 sequence (looked up) with F39L, I78V

human TL1A [3] = target: T1, human TL1A; experiment: SPR, Fab lysate, average

B1: Antibody 51 (Fab format) (Fab, V domains shown)
VH: QVQLQESGPGLVRPSQTLSLTCTVSGFDIQDTYMHWVRQRPGRGLEWMGRIEPAGGHTKYNPSLKSRVTITRDTSKNQVSLRLSSVTAADTAVYYCVRSGGLPDAWGQGSLVTVSS
VL: DIQMTQSPSSLSASVGDRVTITCRASQGVEYMYWYQQKPGKAPKLLIYGASNLASGVPSRFSGSGSGTDFTFTISSLQPEDIATYYCQQWEGNPRTFGQGTKVEIK
notes: Backup lead, Fab format
binding result (human TL1A [1]): binds

B2: Antibody 45 (Fab format) (Fab, V domains shown)
VH: B1 VH with Q30E, G55S, V97A, R98I, L102V, A105V
VL: B1 VL with Q27S, G28S, E30S, G49A, A50T
notes: Backup lead, Fab format
binding result (human TL1A [1]): binds

B3: Antibody 10 (Fab format) (Fab, V domains shown)
VH: B1 VH with F27L, I29P, Q30D, R98I, A105V
VL: B1 VL
notes: High priority lead, Fab format
Kd (human TL1A [1]): < 1000 pM
Kd (human TL1A [2]): 480 pM
Kd (Cyno TL1A): 1830 pM
Kd (human TL1A [3]): 480 pM

B6: Antibody 27 (Fab format) (Fab, V domains shown)
VH: B1 VH
VL: B1 VL with E30R, G49A, A50T
notes: Backup lead, Fab format
binding result (human TL1A [1]): binds

B9: Antibody 1 (Fab format) (Fab, V domains shown)
VH: B1 VH with V97A, R98S, L102M, A105L
VL: B1 VL
notes: High priority lead, Fab format; also called Lead #1
Kd (human TL1A [2]): 170 pM
Kd (Cyno TL1A): 170 pM
Kd (human TL1A [3]): 170 pM

B12: Antibody 7 (Fab format) (Fab, V domains shown)
VH: B1 VH with I29M, Q30G, G55A, A105I
VL: B1 VL
notes: as for B3
Kd (human TL1A [2]): 430 pM
Kd (Cyno TL1A): 1630 pM
Kd (human TL1A [3]): 430 pM

B14: Antibody 30 (Fab format) (Fab, V domains shown)
VH: B1 VH
VL: B1 VL with Q27S, G28S, E30S, G49S
notes: Backup lead, Fab format
binding result (human TL1A [1]): binds

B16: Antibody 14 (Fab format) (Fab, V domains shown)
VH: B1 VH with F27L, I29P, Q30D, R98I, A105V
VL: B1 VL with V29I, E30Y
notes: as for B3
Kd (human TL1A [1]): < 1000 pM
Kd (human TL1A [2]): 700 pM
Kd (Cyno TL1A): 4250 pM
Kd (human TL1A [3]): 700 pM

B18: Antibody 9 (Fab format) (Fab, V domains shown)
VH: B1 VH
VL: B1 VL with E30G, G49S
notes: as for B3
Kd (human TL1A [1]): < 1000 pM
Kd (human TL1A [2]): 430 pM
Kd (Cyno TL1A): 1990 pM
Kd (human TL1A [3]): 430 pM

B21: Antibody 6 (Fab format) (Fab, V domains shown)
VH: B1 VH with I29M, Q30A, A105M
VL: B1 VL with G49S
notes: as for B3
Kd (human TL1A [2]): 410 pM
Kd (Cyno TL1A): 260 pM
Kd (human TL1A [3]): 410 pM

B24: Antibody 13 (Fab format) (Fab, V domains shown)
VH: B1 VH with I29Y, E52D, G55S, V97A, R98V, L102M, A105V
VL: B1 VL with G49A, A50T
notes: as for B3
Kd (human TL1A [1]): < 1000 pM
Kd (human TL1A [2]): 430 pM
Kd (Cyno TL1A): 340 pM
Kd (human TL1A [3]): 430 pM

B27: Antibody 16 (Fab format) (Fab, V domains shown)
VH: B1 VH with I29M, D31S, A105V
VL: B1 VL
notes: as for B3
Kd (human TL1A [1]): < 1000 pM
Kd (human TL1A [2]): 510 pM
Kd (Cyno TL1A): 320 pM
Kd (human TL1A [3]): 510 pM

More lines, now with the values ahead:

Kd (human TL1A [1]): < 1000 pM
Kd (human TL1A [2]): 570 pM
Kd (Cyno TL1A): 330 pM
Kd (human TL1A [3]): 570 pM
B4: Antibody 17 (Fab format) (Fab, V domains shown)
VH: B1 VH with I29M, Q30G, G55A, A105V
VL: B1 VL
notes: as for B3

binding result (human TL1A [1]): binds
B5: Antibody 42 (Fab format) (Fab, V domains shown)
VH: B1 VH with Q30T, A105V
VL: B1 VL with E30G
notes: Backup lead, Fab format

Kd (human TL1A [2]): 330 pM
Kd (Cyno TL1A): 160 pM
Kd (human TL1A [3]): 330 pM
B7: Antibody 4 (Fab format) (Fab, V domains shown)
VH: B1 VH with I29M, Q30A, A105M
VL: B1 VL with Q27S, G28S, E30S
notes: as for B3

binding result (human TL1A [1]): binds
B8: Antibody 53 (Fab format) (Fab, V domains shown)
VH: B1 VH with G55S, V97A, L102M, P103M, A105R
VL: B1 VL with E30R
notes: Backup lead, Fab format

Kd (human TL1A [1]): < 1000 pM
Kd (human TL1A [2]): 670 pM
Kd (Cyno TL1A): 1280 pM
Kd (human TL1A [3]): 670 pM
B10: Antibody 18 (Fab format) (Fab, V domains shown)
VH: B1 VH with I29M, Q30G, L102M, A105V
VL: B1 VL with Q27S, G28S, E30S, G49Y
notes: as for B3

Kd (human TL1A [2]): 310 pM
Kd (Cyno TL1A): 620 pM
Kd (human TL1A [3]): 310 pM
B11: Antibody 3 (Fab format) (Fab, V domains shown)
VH: B1 VH
VL: B1 VL with E30R
notes: as for B3

binding result (human TL1A [1]): binds
B13: Antibody 34 (Fab format) (Fab, V domains shown)
VH: B1 VH with F27L, I29P, Q30D, R98I, A105V
VL: B1 VL with V29I, E30Y, G49A, A50T
notes: Backup lead, Fab format

Kd (human TL1A [1]): < 1000 pM
Kd (human TL1A [2]): 480 pM
Kd (Cyno TL1A): 380 pM
Kd (human TL1A [3]): 480 pM
B15: Antibody 11 (Fab format) (Fab, V domains shown)
VH: B1 VH with I29M, Q30G, L102M, A105V
VL: B1 VL with G49S
notes: as for B3

Kd (human TL1A [1]): < 1000 pM
Kd (human TL1A [2]): 500 pM
Kd (Cyno TL1A): 1810 pM
Kd (human TL1A [3]): 500 pM
B17: Antibody 15 (Fab format) (Fab, V domains shown)
VH: B1 VH
VL: B1 VL with V29I, E30Y
notes: as for B3

binding result (human TL1A [1]): binds
B19: Antibody 24 (Fab format) (Fab, V domains shown)
VH: B1 VH
VL: B1 VL with E30G, G49A, A50T
notes: Backup lead, Fab format

binding result (human TL1A [1]): binds
B20: Antibody 39 (Fab format) (Fab, V domains shown)
VH: B1 VH
VL: B1 VL with Q27S, G28S, E30S, G49A, A50T
notes: Backup lead, Fab format

binding result (human TL1A [1]): binds
B22: Antibody 33 (Fab format) (Fab, V domains shown)
VH: B1 VH
VL: B1 VL with G49A, A50T
notes: Backup lead, Fab format

binding result (human TL1A [1]): binds
B23: Antibody 41 (Fab format) (Fab, V domains shown)
VH: B1 VH with Q30T, A105V
VL: B1 VL with Q27S, G28S, E30S, G49S
notes: Backup lead, Fab format

Kd (human TL1A [2]): 200 pM
Kd (Cyno TL1A): 940 pM
Kd (human TL1A [3]): 200 pM
B25: Antibody 2 (Fab format) (Fab, V domains shown)
VH: B1 VH with F27L, I29P, Q30D, R98I, A105V
VL: B1 VL with Q27S, G28S, E30S, G49A, A50T
notes: as for B3

Kd (human TL1A [2]): 380 pM
Kd (Cyno TL1A): 3260 pM
Kd (human TL1A [3]): 380 pM
B26: Antibody 8 (Fab format) (Fab, V domains shown)
VH: B1 VH with I29M, D31S, A105V
VL: B1 VL with Q27S, G28S, E30S
notes: as for B3

Kd (human TL1A [2]): 330 pM
Kd (Cyno TL1A): 790 pM
Kd (human TL1A [3]): 330 pM
B28: Antibody 5 (Fab format) (Fab, V domains shown)
VH: B1 VH with I29M, G55S, A105V
VL: B1 VL with E30M
notes: as for B3

Kd (human TL1A [1]): < 1000 pM
Kd (human TL1A [2]): 430 pM
Kd (Cyno TL1A): 1290 pM
Kd (human TL1A [3]): 430 pM
B29: Antibody 12 (Fab format) (Fab, V domains shown)
VH: B1 VH with Q30T, A105V
VL: B1 VL with G49S
notes: as for B3

Reference: US20250109209A1 (ABSCI, published 2025)
